The values that follow come from patent US20040068761.

This series deals with FLP recombinase. Kind of series: cell_activity. The following applies: excision of y+ donor flanked by FRTs (33,668/33,790 w+ progeny lost y+), with I-SceI co-expressed in Drosophila.

“FRT (FLP recombination target) from yeast 2 micron plasmid”: the activity worked out at 99.6%.
